Measurements published in patent publication US20250084163A1 (SORRENTO THERAPEUTICS, published 2025).
Substitutions are numbered along the chain they refer to.

Tests used:
[1] = target: T1, Human ROR1 protein (UniProt Q01973-1) (human, UniProt Q01973 30-937); test: flow cytometry on A549, Raji and MCF7 cells (ROR1+)
T1 construct: Endogenous ROR1 of human tumour cell lines; also called ROR1 on A549, Raji (RAJI) and MCF7 cells; cognate antigen expressed at the surface of cells
Description: Flow cytometry was used to test antibody binding to adenocarcinomic human alveolar basal epithelial cell line A549 (ROR1+), Burkitt's lymphoma cell line RAJI (ROR1+), breast cancer cell line (ROR1+), A549 ROR1-KO cell line (ROR1 knockout) which is ROR1 negative, and Duke's type B adenocarcinoma cell line LS174T (ROR1 negative).
The cells were re-suspended in 120 µL/well of FACS buffer containing Goat anti-human IgG AF647 (1:2,000, Southern Biotech, Cat No. 2040-31, Lot No. D1817-T817C) and plate was incubated for 20 minutes at 4° C. in the dark.
FIGS. 4A-E show anti-human ROR1 antibodies RO6D8-s10, RO6D8-jlv1011, RO6A-a7gm and RO6A-a8gm binding to ROR1-expressing A549 (FIG. 4A), Raji (FIG. 4B), and MCF7 (FIG. 4C) cells; and ROR1 negative A549 ROR1-KO (FIG. 4D) and LS174T (FIG. 4E) cells.

[2] = target: T2, Recombinant truncated human his-tag ROR1 Ig-like domain (human, UniProt Q01973 39-151); test: ELISA, antibody coated at 5 ug/mL, his-tagged antigen at 2 ug/ml, anti-his HRP
T2 construct: also called human his-tag ROR1 Ig-like domain C-his; human ROR1 Ig-like domain
T2 sequence (Q01973 other isoform, or with tags, fused parts or gaps limits assumed): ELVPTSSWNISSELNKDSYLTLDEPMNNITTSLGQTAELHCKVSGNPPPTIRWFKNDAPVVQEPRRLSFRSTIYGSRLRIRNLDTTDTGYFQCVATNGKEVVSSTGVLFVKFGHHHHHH
Description: (§1) Cross-reactivity of the anti-human ROR1 antibodies with his-tagged ROR1 recombinant protein from human and mouse, were analyzed by ELISA assay. The antibodies 5 μg/mL (RO6D8wt, RO6D8-s10, RO6D8-glv1011, RO6D8-jlv1011, RO6D8-1v1011) were diluted with PBS buffer and coated on a plate at 50 μL per well or control buffers coated on a plate at 50 μL per well. The plate was washed three times with 150 μL/well of PBS-T (PBSIX supplemented with 0.05% Tween 20). Subsequently, the plate was blocked with 100 μL/well of blocking buffer (blocker Casein in PBS from Bioworld, Cat. No. 40320020-2) for 1 hour at RT. The plates were washed 3 times with 150 μL/well of PBS-T, after blocking. Recombinant mouse his-tag ROR1, 2 μg/ml (Acro Biosystems Cat. No. RO1-M5221, Lot: 1201-48ESI-65), human his-tag ROR1 extracellular domain (SEQ ID NO:2), 1 μg/ml (Acro Biosystems Cat. No. RO1-H522Y, lot: C81-76KF1-FR), human his-tag ROR1 Ig-like domain C-his, 2 μg/ml (Acro Biosystems Cat. No. RO1-H5221, Lot: B311-59SSI-CA), human his-tag CD138, 2 μg/ml (Sino Cat. No. 11429-H08H, Lot: LCL07NO0412) (negative control antibody), and Casein/PBS buffer (control). 30 μl of his-tagged ROR1 antigen, his tagged CD138 or Casein/PBS buffer were added to the plate, per well, and incubated for 1 hour at room temperature. The plate was washed three times with 150 μL/well of PBS-T and anti 6x-his (SEQ ID NO:58) tag antibody HRP (Abcam; Cat. No. Ab1187) was incubated at dilution 1:5,000, 30 μL/well for 1 hour at RT. […] The signal was stopped at the desired saturation point by using 15 μL/well of 2 N sulfuric acid (H₂SO₄) stop solution and read on a plate reader at 450 nm.

[3] = target: T1, Human ROR1 protein (UniProt Q01973-1); test: flow cytometry on A549 cells (ROR1+)
Description: Flow cytometry was used to test antibody binding to adenocarcinomic human alveolar basal epithelial cell line A549 (ROR1+) and immortalized line of human T lymphocyte cell line Jurkat (ROR1 negative), using various anti-ROR1 antibodies. The cells were prepared at concentration of 1×10⁶/ml in FACS buffer (PBS, 2% FBS, and 0.05% azide). Cells were plated at 30 μl/well in a V-bottom 96-well plate. Anti-ROR1 antibodies (with RO6D8wt used as control) were diluted in FACS buffer (5X serial dilution starting from 50 μg/ml) and 30 μl was added to each well with either A549 or Jurkat cells for 60 min on ice. After incubation, the cells were centrifuged at 2000 rpm for 5 minutes, flip out supernatant. After 1 wash with 200 μL/well of FACS buffer, cells were incubated with an AF647 goat anti-human Fab2 antibody (Jackson ImmunoResearch; Cat. No. 109-606-088) (dilution 1:2000 in FACS buffer) at 50 μL/well for 40 min on ice. After incubation, the cells were centrifuged at 2000 rpm for 5 minutes, flip out supernatant. After 1 wash with 200 μL/well of FACS buffer cells were resuspended in 30 μl of FACS buffer and acquired by flow cytometry using IntelliCyt readout.

[4] = target: T3, Recombinant truncated human his-tag ROR1 extracellular domain protein (human, UniProt Q01973 30-403); test: SPR (Biacore T200), antibody captured by anti-human Fc, his-tagged ROR1 ECD as analyte
T3 construct: the tag is part of the entry; also called his-tagged ROR1 protein; human ROR1 ECD
T3 sequence (Q01973 other isoform, or with tags, fused parts or gaps limits assumed): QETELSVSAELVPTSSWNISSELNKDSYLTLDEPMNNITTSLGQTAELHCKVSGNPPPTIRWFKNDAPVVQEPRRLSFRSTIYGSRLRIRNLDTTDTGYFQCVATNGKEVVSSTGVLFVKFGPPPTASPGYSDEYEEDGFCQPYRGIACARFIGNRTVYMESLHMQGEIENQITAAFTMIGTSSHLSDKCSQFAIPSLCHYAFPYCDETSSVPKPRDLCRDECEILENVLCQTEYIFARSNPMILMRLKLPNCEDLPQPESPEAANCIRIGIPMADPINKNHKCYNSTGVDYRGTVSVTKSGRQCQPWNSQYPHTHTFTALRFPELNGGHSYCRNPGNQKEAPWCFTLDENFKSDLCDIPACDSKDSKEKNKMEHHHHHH
Description: Binding kinetics of anti-ROR1 antibodies with his-tagged ROR1 protein were measured using surface plasmon resonance (SPR). The anti-ROR1 antibodies tested included proprietary antibodies RO6D8 wt, RO6D8-s10, RO6D8-jlv1011, and RO6D8-011. Anti-human fragment crystallizable region (Fc region) antibody was immobilized on a CM5 sensor chip to approximately 8,000 RU using standard N-hydroxysuccinimide/N-Ethyl-N′-(3-dimethylaminopropyl) carbodiimide hydrochloride (NHS/EDC) coupling methodology. The anti-ROR1 antibodies (1-2 μg/mL) were captured for 60 seconds at a flow rate of 10 μL/minute. The his-tagged ROR1 protein included amino acid 30 to amino acid 403 of SEQ ID NO: 1 (i.e., SEQ ID NO:2) (Acro Biosystems; Cat. No. RO1-H522Y). This polypeptide was serially diluted in a running buffer of 0.01 M HEPES pH 7.4, 0.15 M NaCl, 3 mM EDTA, 0.05% v/v Surfactant P20 (HBS-EP+) and run at 6 different dilutions. All measurements were conducted in HBS-EP+ buffer with a flow rate of 30 μL/minute. A 1:1 (Langmuir) binding model was used to fit the data. All BIACORE assays were performed at room temperature using Biacore T200 surface plasmon resonance (GE Healthcare).

[5] = target: T3, Recombinant truncated human his-tag …; test: ELISA, antibody coated at 5 ug/mL, his-tagged antigen at 1 ug/ml, anti-his HRP
Description: as §1, with “(control).” for “(control). 30 μl of his-tagged ROR1 antigen, his tagged CD138 or Casein/PBS buffer were added to the plate, per well, and incubated for 1 hour at room temperature. The plate was washed three times with 150 μL/well of PBS-T and anti 6x-his (SEQ ID NO:58) tag antibody HRP (Abcam; Cat. No. Ab1187) was incubated at dilution 1:5,000, 30 μL/well for 1 hour at RT.”

T1 sequence (Q01973 30-937 limits assumed, one chain of several): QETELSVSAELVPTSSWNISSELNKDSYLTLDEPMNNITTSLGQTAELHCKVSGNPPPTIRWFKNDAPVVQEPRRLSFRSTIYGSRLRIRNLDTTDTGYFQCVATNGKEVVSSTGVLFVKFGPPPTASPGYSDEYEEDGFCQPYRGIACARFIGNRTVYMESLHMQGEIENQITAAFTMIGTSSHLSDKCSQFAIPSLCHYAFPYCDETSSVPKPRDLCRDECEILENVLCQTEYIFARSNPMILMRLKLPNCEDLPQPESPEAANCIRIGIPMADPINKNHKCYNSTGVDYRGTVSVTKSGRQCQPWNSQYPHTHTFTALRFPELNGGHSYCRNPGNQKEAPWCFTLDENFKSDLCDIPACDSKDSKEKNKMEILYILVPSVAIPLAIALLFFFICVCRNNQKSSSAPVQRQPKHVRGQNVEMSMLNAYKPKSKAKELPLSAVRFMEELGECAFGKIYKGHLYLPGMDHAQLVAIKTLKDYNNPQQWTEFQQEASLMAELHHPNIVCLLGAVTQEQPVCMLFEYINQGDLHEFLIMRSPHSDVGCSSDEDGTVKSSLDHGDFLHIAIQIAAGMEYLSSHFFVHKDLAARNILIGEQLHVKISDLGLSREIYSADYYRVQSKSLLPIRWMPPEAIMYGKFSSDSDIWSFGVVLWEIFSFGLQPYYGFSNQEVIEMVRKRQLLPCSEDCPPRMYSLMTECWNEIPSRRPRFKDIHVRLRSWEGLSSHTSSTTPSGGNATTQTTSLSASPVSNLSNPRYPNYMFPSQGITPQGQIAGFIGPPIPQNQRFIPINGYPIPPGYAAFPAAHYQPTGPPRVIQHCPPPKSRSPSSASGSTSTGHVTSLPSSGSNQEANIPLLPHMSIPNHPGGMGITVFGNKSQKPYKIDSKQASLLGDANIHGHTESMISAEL

B1: RO6A-a8gm (antibody, V domains shown)
VH: QVQLVESGGGLVKPGGSLRLSCAASGFTFSDYYMTWIRQAPGKGLEWVSYISGSSAYSNYADSVKGRFTISRDNSKNTLYLQMNSLRAEDTAVYYCARDPLLYGWLTDWGQGTLVTVSS
VL: QSALTQPASVSGSPGQSITISCTGTSSDGGGYDSVSWYQQHPGKAPKLMIYDVNKRPSGVSGRFSGSKSGNTASLTISGLQAEDEADYYCSSFTSDVMVFGGGTKLTVL
notes: it was detected with goat anti-human IgG and compared with an IgG1 isotype control
binding result [1]: binds

B2: RO6D8-s10 (antibody, V domains shown)
VH: QVQLVQSGAEVKKPGASVKVSCKASGYTFTNYYMHWVRQAPGQGLEWMGIINPSGGSTSYAQKFQGRVTMTRDTSTSTVYMELSSLRSEDTAVYYCARSSRSSYYLWVLDLWGQGTTVTVSS
VL: AIQMTQSPSSLSASVGDRVTITCRASQGVSTEIAWYQQKPGKAPKLLIYAASSLQSGVPSRFSGSGSGTDFTLTISSLQPEDFATYYCQQFNSYPITFGQGTRLEIK
binding result [2]: binds | binding result [3]: binds | binding result [4]: binds

B3: RO6D8-jlv1011 (antibody, V domains shown)
VH: QVQLVQSGAEVKKPGASVKVSCKASGYTFTSKYYHWVRQAPGQGLEWMGIINPTSGSTSYAQKFQGRVTMTRDTSTSTVYMELSSLRSEDTAVYYCARDSSRYSGWYFDLWGQGTTVTVSS
VL: B2 VL with M4L, F91Y, N92Y, S93G, T97A
binding result [2]: binds | binding result [3]: binds | binding result [4]: binds

B4: RO6D8-011 (antibody, V domains shown)
VH: B2 VH with S54T, G55S, S57R, S99D, R101S, S103W, Y105S, L106G, V108Y, L109F
VL: B2 VL with V29I, S30R, E32D, I33L, F91Y, N92Y, S93G, T97A
notes: it was captured by an anti-human Fc antibody in SPR; also called RO6D8-O11
binding result [4]: binds

B5: RO6D8wt (antibody, V domains shown)
VH: B2 VH with S99D, R101S, S103W, Y105S, L106G, V108Y, L109F
VL: B2 VL with G28D, S30R, T31A, E32H, I33L
notes: it was captured by an anti-human Fc antibody in SPR, so it carries a human Fc; also called wildtype anti-human ROR1 antibody
binding result [2]: binds | binding result [3]: binds | binding result [5]: binds
